Experimental data as given in patent publication US20230272028.

ALU30-15, sequence (chain, as listed by the source): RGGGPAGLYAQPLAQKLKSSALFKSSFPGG
hepsin, recombinant human, sequence (chain, as listed by the source): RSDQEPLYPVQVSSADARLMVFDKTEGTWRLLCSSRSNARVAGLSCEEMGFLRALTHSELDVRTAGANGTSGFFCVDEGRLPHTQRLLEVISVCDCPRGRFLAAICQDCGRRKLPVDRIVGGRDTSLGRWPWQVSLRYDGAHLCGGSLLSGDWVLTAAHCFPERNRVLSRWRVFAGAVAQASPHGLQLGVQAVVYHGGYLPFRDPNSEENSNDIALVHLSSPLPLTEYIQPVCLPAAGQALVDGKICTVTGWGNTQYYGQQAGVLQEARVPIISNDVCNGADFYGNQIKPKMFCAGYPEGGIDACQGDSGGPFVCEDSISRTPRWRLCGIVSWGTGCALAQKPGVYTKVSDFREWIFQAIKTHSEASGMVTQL
ALU30-14, sequence (chain, as listed by the source): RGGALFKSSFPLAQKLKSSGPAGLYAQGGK
ALU30-19, sequence (chain, as listed by the source): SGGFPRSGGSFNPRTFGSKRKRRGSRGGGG
ALU30-6, sequence (chain, as listed by the source): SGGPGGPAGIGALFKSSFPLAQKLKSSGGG
ALU30-1, sequence (chain, as listed by the source): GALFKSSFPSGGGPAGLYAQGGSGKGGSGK
ALU30-9, sequence (chain, as listed by the source): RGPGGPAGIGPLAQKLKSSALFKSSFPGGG
ALU30-10, sequence (chain, as listed by the source): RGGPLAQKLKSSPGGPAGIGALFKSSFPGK
MMP-9, recombinant human, sequence (chain, as listed by the source): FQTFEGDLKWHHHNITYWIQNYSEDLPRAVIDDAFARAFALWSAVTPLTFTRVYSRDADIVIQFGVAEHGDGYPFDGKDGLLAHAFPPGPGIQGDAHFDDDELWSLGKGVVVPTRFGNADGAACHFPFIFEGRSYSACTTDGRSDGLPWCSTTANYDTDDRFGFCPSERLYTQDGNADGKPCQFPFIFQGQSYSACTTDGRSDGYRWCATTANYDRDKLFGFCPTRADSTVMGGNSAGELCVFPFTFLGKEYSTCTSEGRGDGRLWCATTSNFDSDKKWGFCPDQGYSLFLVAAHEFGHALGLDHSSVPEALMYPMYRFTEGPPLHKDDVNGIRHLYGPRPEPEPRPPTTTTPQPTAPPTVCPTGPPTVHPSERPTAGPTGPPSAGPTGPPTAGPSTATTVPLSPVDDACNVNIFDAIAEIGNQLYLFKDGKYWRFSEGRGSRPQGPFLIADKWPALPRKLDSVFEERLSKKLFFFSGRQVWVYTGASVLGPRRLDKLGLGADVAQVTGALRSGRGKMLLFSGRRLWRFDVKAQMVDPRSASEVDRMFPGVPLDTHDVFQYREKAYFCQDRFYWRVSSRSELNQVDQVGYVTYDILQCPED
ALU30-13, sequence (chain, as listed by the source): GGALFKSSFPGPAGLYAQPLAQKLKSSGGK
ALU30-7, sequence (chain, as listed by the source): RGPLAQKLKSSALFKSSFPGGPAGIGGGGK
ALU30-2, sequence (chain, as listed by the source): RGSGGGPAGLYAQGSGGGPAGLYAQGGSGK
ALU30-16, sequence (chain, as listed by the source): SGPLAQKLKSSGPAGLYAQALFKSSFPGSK
ALU30-5, sequence (chain, as listed by the source): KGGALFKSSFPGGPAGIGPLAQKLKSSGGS
Factor Xa, recombinant human, sequence (chain): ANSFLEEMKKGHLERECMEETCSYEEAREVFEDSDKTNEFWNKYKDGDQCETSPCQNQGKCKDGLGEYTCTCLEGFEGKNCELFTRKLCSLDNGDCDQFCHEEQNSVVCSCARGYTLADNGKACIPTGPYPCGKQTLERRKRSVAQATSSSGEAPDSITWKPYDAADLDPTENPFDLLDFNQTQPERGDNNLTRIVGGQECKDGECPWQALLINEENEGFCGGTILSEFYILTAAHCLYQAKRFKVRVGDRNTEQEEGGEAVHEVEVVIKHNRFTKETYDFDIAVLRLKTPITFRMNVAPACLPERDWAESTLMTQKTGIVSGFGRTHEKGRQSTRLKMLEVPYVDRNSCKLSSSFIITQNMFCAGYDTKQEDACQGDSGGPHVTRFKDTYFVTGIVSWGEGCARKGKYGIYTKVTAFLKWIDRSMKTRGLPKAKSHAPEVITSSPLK
ALU30-8, sequence (chain, as listed by the source): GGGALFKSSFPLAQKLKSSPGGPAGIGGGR
ALU30-12, sequence (chain, as listed by the source): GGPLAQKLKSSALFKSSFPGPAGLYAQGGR
ALU30-17, sequence (chain, as listed by the source): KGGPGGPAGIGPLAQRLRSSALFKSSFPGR
ALU30-18, sequence (chain, as listed by the source): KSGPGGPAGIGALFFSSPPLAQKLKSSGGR
ALU30-11, sequence (chain, as listed by the source): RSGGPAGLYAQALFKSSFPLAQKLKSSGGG
ALU30-4, sequence (chain, as listed by the source): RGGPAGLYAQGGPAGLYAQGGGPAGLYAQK
ALU30-3, sequence (chain, as listed by the source): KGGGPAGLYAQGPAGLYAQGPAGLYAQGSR

Substance	30-mer peptide degradation by recombinant enzyme (MSP-MS) (ALU30-1)	30-mer peptide degradation by recombinant enzyme (MSP-MS) (ALU30-5)	30-mer peptide degradation by recombinant enzyme (MSP-MS) (ALU30-3)	30-mer peptide degradation by recombinant enzyme (MSP-MS) (ALU30-13)	30-mer peptide degradation by recombinant enzyme (MSP-MS) (ALU30-8)	30-mer peptide degradation by recombinant enzyme (MSP-MS) (ALU30-7)	30-mer peptide degradation by recombinant enzyme (MSP-MS) (ALU30-10)	30-mer peptide degradation by recombinant enzyme (MSP-MS) (ALU30-2)	30-mer peptide degradation by recombinant enzyme (MSP-MS) (ALU30-9)	30-mer peptide degradation by recombinant enzyme (MSP-MS) (ALU30-12)	30-mer peptide degradation by recombinant enzyme (MSP-MS) (ALU30-4)	30-mer peptide degradation by recombinant enzyme (MSP-MS) (ALU30-15)	30-mer peptide degradation by recombinant enzyme (MSP-MS) (ALU30-6)	30-mer peptide degradation by recombinant enzyme (MSP-MS) (ALU30-14)	comparison of cleavage efficiencies across the 30-mer library (ALU30-16)	30-mer peptide degradation by recombinant enzyme (MSP-MS) (ALU30-19)	30-mer peptide degradation by recombinant enzyme (MSP-MS) (ALU30-18)	30-mer peptide degradation by recombinant enzyme (MSP-MS) (ALU30-16)	30-mer peptide degradation by recombinant enzyme (MSP-MS) (ALU30-11)	30-mer peptide degradation by recombinant enzyme (MSP-MS) (ALU30-17)	other results
MMP-9, recombinant human	The single or double MMP14_1 motif-bearing peptides were next in the order	The FAPa_1 motif was not cleaved by MMP9, however, when followed either by the ADAM17_2 motif or the spacing residues GG	The most efficient MMP9 substrates were those that bore three-repeats of the MMP14_1 motif	The next most efficient substrates contained the pair of motifs where MMP14_1 was followed directly by ADAM17_2	The FAPa_1 motif was not cleaved by MMP9, however, when followed either by the ADAM17_2 motif or the spacing residues GG	The FAPa_1 motif was not cleaved by MMP9, however, when followed either by the ADAM17_2 motif or the spacing residues GG	the FAPa_1 motif was also cleaved within the peptides bearing FAPa_1 directly followed by the CTSL1_1 motif at PGGPAG|IGALF (SEQ ID NO: 247); these were lower efficiency cleavages	The single or double MMP14_1 motif-bearing peptides were next in the order	The FAPa_1 motif was not cleaved by MMP9, however, when followed either by the ADAM17_2 motif or the spacing residues GG	The slowest peptides bear the MMP14_1 motif near the C-terminus of the 30-mer peptide	The most efficient MMP9 substrates were those that bore three-repeats of the MMP14_1 motif	The next most efficient substrates contained the pair of motifs where MMP14_1 was followed directly by ADAM17_2	the FAPa_1 motif was also cleaved within the peptides bearing FAPa_1 directly followed by the CTSL1_1 motif at PGGPAG|IGALF (SEQ ID NO: 247); these were lower efficiency cleavages	The slowest peptides bear the MMP14_1 motif near the C-terminus of the 30-mer peptide	–	–	–	–	–	–	product formation at single bonds (MSP-MS) (ALU30-1): the specific cleavage of the Alu30-2 peptide was more efficient than the Alu30-1 peptide; product formation at single bonds (MSP-MS) (ALU30-2): the specific cleavage of the Alu30-2 peptide was more efficient than the Alu30-1 peptide
hepsin, recombinant human	–	–	–	–	–	–	–	–	–	–	–	–	–	–	the lowest susceptibility to thrombin, Factor Xa, and hepsin	Alu30-19 was cleaved at all three motifs within the first 15 min of the reaction	–	–	–	–	apparent catalytic efficiency (kcat/KM) (ALU30-8): The authentic peptide Alu30-19, as well as the top cleaved peptides Alu30-8,-9, -12, and -14 all had apparent catalytic efficiencies on the same order of 105; apparent catalytic efficiency (kcat/KM) (ALU30-9): The authentic peptide Alu30-19, as well as the top cleaved peptides Alu30-8,-9, -12, and -14 all had apparent catalytic efficiencies on the same order of 105; apparent catalytic efficiency (kcat/KM) (ALU30-19): The authentic peptide Alu30-19, as well as the top cleaved peptides Alu30-8,-9, -12, and -14 all had apparent catalytic efficiencies on the same order of 105; apparent catalytic efficiency (kcat/KM) (ALU30-12): The authentic peptide Alu30-19, as well as the top cleaved peptides Alu30-8,-9, -12, and -14 all had apparent catalytic efficiencies on the same order of 105; comparison of cleavage efficiencies across the 30-mer library (ALU30-15): it had slightly higher hepsin susceptibility and lower CTSL1 activity; apparent catalytic efficiency (kcat/KM) (ALU30-14): The authentic peptide Alu30-19, as well as the top cleaved peptides Alu30-8,-9, -12, and -14 all had apparent catalytic efficiencies on the same order of 105
Factor Xa, recombinant human	all other peptides bearing a CTSL1_1 motif were cleaved by Factor Xa at either ALF|KSSFP (SEQ ID NO: 198) or ALFKS|SFP (SEQ ID NO: 198)	the only library peptide with significant cleavage was Alu30-5, cleaved at the CTSL1_1 motif ALFKS|SFP (SEQ ID NO: 198), upstream of a FAPa_1 motif	–	all other peptides bearing a CTSL1_1 motif were cleaved by Factor Xa at either ALF|KSSFP (SEQ ID NO: 198) or ALFKS|SFP (SEQ ID NO: 198)	all other peptides bearing a CTSL1_1 motif were cleaved by Factor Xa at either ALF|KSSFP (SEQ ID NO: 198) or ALFKS|SFP (SEQ ID NO: 198)	all other peptides bearing a CTSL1_1 motif were cleaved by Factor Xa at either ALF|KSSFP (SEQ ID NO: 198) or ALFKS|SFP (SEQ ID NO: 198)	all other peptides bearing a CTSL1_1 motif were cleaved by Factor Xa at either ALF|KSSFP (SEQ ID NO: 198) or ALFKS|SFP (SEQ ID NO: 198)	–	all other peptides bearing a CTSL1_1 motif were cleaved by Factor Xa at either ALF|KSSFP (SEQ ID NO: 198) or ALFKS|SFP (SEQ ID NO: 198)	all other peptides bearing a CTSL1_1 motif were cleaved by Factor Xa at either ALF|KSSFP (SEQ ID NO: 198) or ALFKS|SFP (SEQ ID NO: 198)	–	all other peptides bearing a CTSL1_1 motif were cleaved by Factor Xa at either ALF|KSSFP (SEQ ID NO: 198) or ALFKS|SFP (SEQ ID NO: 198)	all other peptides bearing a CTSL1_1 motif were cleaved by Factor Xa at either ALF|KSSFP (SEQ ID NO: 198) or ALFKS|SFP (SEQ ID NO: 198)	all other peptides bearing a CTSL1_1 motif were cleaved by Factor Xa at either ALF|KSSFP (SEQ ID NO: 198) or ALFKS|SFP (SEQ ID NO: 198)	the lowest susceptibility to thrombin, Factor Xa, and hepsin	Peptide Alu30-19 with this motif was completely degraded before the 5 min time point	The peptide with the motif CTSL1_2 was cleaved at the lowest efficiency	all other peptides bearing a CTSL1_1 motif were cleaved by Factor Xa at either ALF|KSSFP (SEQ ID NO: 198) or ALFKS|SFP (SEQ ID NO: 198)	all other peptides bearing a CTSL1_1 motif were cleaved by Factor Xa at either ALF|KSSFP (SEQ ID NO: 198) or ALFKS|SFP (SEQ ID NO: 198)	all other peptides bearing a CTSL1_1 motif were cleaved by Factor Xa at either ALF|KSSFP (SEQ ID NO: 198) or ALFKS|SFP (SEQ ID NO: 198)	–
thrombin, recombinant human	The peptides Alu30-1 and Alu30-3 were the most rapidly cleaved in the library	Thrombin showed higher activity than Factor Xa, and it cleaved each of the 30-mer peptides	The peptides Alu30-1 and Alu30-3 were the most rapidly cleaved in the library	the peptides Alu30-12, Alu30-13 and Alu30-15, with MMP141 motifs in combination with ADAM17_2 and CTSL1_1, were cleaved at lower efficiency by thrombin	Thrombin showed higher activity than Factor Xa, and it cleaved each of the 30-mer peptides	Thrombin showed higher activity than Factor Xa, and it cleaved each of the 30-mer peptides	Thrombin showed higher activity than Factor Xa, and it cleaved each of the 30-mer peptides	The peptide Alu30-2, bearing two MMP14_1 motifs, was less susceptible to thrombin	The two alternate ADAM17 motifs were cleaved with similar efficiency (peptides Alu30-17 vs Alu30-9)	the peptides Alu30-12, Alu30-13 and Alu30-15, with MMP141 motifs in combination with ADAM17_2 and CTSL1_1, were cleaved at lower efficiency by thrombin	Alu30-4 was also an efficient substrate	the peptides Alu30-12, Alu30-13 and Alu30-15, with MMP141 motifs in combination with ADAM17_2 and CTSL1_1, were cleaved at lower efficiency by thrombin	the CTSL1_2 motif had lower cleavage activity than did the CTSL1_1 motif (peptides Alu30-18 vs Alu30-6)	Thrombin showed higher activity than Factor Xa, and it cleaved each of the 30-mer peptides	the lowest susceptibility to thrombin, Factor Xa, and hepsin	Thrombin showed higher activity than Factor Xa, and it cleaved each of the 30-mer peptides	the CTSL1_2 motif had lower cleavage activity than did the CTSL1_1 motif (peptides Alu30-18 vs Alu30-6)	Thrombin showed higher activity than Factor Xa, and it cleaved each of the 30-mer peptides	Thrombin showed higher activity than Factor Xa, and it cleaved each of the 30-mer peptides	The two alternate ADAM17 motifs were cleaved with similar efficiency (peptides Alu30-17 vs Alu30-9)	–
